Source: IntAct's records for PubMed 19628817

B1: Succinate dehydrogenase assembly factor 2, mitochondrial (Homo sapiens), Q9NX18 (parent)
chain: MAVSTVFSTSSLMLALSRHSLLSPLLSVTSFRRFYRGDSPTDSQKDMIEIPLPPWQERTDESIETKRARLLYESRKRGMLENCILLSLFAKEHLQHMTEKQLNLYDRLINEPSNDWDIYYWATEAKPAPEIFENEVMALLRDFAKNKNKEQRLRAPDLEYLFEKPR

Variants of: B1
Conditions: with sdha_human SDHA

effect of a mutation on the interaction | Variant
disrupting interaction strength | MAVSTVFSTSSLMLALSRHSLLSPLLSVTSFRRFYRGDSPTDSQKDMIEIPLPPWQERTDESIETKRARLLYESRKRRMLENCILLSLFAKEHLQHMTEKQLNLYDRLINEPSNDWDIYYWATEAKPAPEIFENEVMALLRDFAKNKNKEQRLRAPDLEYLFEKPR
